According to the supplement of paper PMC9170038:

System: MS2 coat protein
Assay: apparent KD of MS2 coat protein; designed switch direction (-1 OFF switch, 1 ON switch): -1; higher = weaker reporter binding
In short: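 Stalled E. coli RNA polymerase transcribed designed RNA switches on Illumina chips, which were then titrated with SNAP-549-labelled MS2 coat protein, doubling from 0.7 or 1.5 nM to 3 µM. Steps lasted from 0.8–1.5 h at the lowest concentration to 10–20 min at the highest. The apparent KD is each design's median over clusters of curve-fitted normalised fluorescence.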

[1] = Eterna round: R95, input ligand: FMN 200 uM
[2] = Eterna round: R95, input ligand: microRNA oligo, concentration not stated
[3] = Eterna round: R95, input ligand: none
[4] = input ligand: microRNA oligo, concentration not stated

Row | Sequence | apparent KD of MS2 coat protein [1] | apparent KD of MS2 coat protein [2] | apparent KD of MS2 coat protein [3] | apparent KD of MS2 coat protein (input ligand: FMN 200 uM) | apparent KD of MS2 coat protein (input ligand: none) | apparent KD of MS2 coat protein [4]
1 | UUUAAUUUUUUUUUUUUACAAGCUUUUUGCUCGUCUUAUACAUGAGGAUCACCCAUGUAGGUGGAGGGUAAAUUAUC [JMF 90] (puzzle: Sensor v3, turn-off variant 2) | 15.6 nM | 44.1 nM | 13.1 nM |  |  | 
2 | UAAAAGCUAGGAUAUGCAAGGUCCGACAUGAGGAUCACCCAUGUGCUCCUAUGCACAUUUGCAGAAGGAGCGAAAA [EX5 A.6] (Eterna round: R97, puzzle: Exclusion 5) |  |  |  | 537 nM | 83 nM | 
3 | UGGCUACAUGAGGAUCACCCAUGUCAGGAUAUGCCGUUAAAUUGACAUCAACGUACGGGUAGAAGGGACUGCGU [1st #8] (Eterna round: R97, puzzle: Exclusion 1) |  |  |  | 43.2 nM | 45.6 nM | 
4 | GCUAGUCAUGUCAGGAUAUGCAGAUCCUUGGAUCUGCAGAAGGGACAUGAGGAUCACCCAUGUGCCUAACUAGC [Mat - Exclusion 4 - JL Mod - D14] (Eterna round: R97, puzzle: Brourd's mod of Exclusion 4) |  |  |  | 479 nM | 41.6 nM | 
5 | CCCGAGGAAGGAUAUACAUGAGGAUCACCCAUGUGCGUUGGGACUGGCGUGGUCUUCAGUAGAAGGUCCGCGCC [Esdiza] (Eterna round: R97, puzzle: Exclusion 3) |  |  |  | 48.7 nM | 33.8 nM | 
6 | CAGUACUGAGGAUAUACAUGAGGAUCACCCAUGUGUCCCGGCUAGGAAACUAGCAAAAGUAGAAGGCAGUACUG [Fiskers Ex 3 828 mod 2] (puzzle: Exclusion 3) |  | 25.1 nM |  |  |  | 
7 | GUGUAGAGAGGAUAUACAUGAGGAUCACCCAUGUGAAUAAGAUAGAAUAAGAUAAAGUGUAGAAGGUUUAGUGU [Excluse me!!! 18 - Jieux - Exclusion 3] (puzzle: Exclusion 3) |  | 38.4 nM |  |  |  | 
8 | UUUUUCAGGCCAGAUCCUCACAUGAGGAUCACCCAUGUGCUCGUCUGUUUUCGCUCUGUCUUUUUUUUGGUGGUGCU [Level Boss var2-20] (puzzle: Sensor v3, turn-off variant 1) | 177 nM | 26.7 nM | 178 nM |  |  | 
9 | UUGUUCAGAGGAUAUACAUGAGGAUCACCCAUGUGUUUCAGCUAGGAGACUAGCGAAAGUAGAAGGCUGUACUC [salish99_ex3_r4_016] (Eterna round: R97, puzzle: Exclusion 3) |  |  |  | 30.5 nM | 25.6 nM | 
10 | CCAUGUGAGGAGGAUAUCGCCGCGCGAACCGAAUGAGAAGGUCUUACAUGAGGAUCACCCAUGUAAAGUACAUC [Eternabot (L1) Solution 1] (Eterna round: R97, puzzle: Exclusion 6) |  |  |  | 20.9 nM | 13.1 nM | 
11 | UAUUAACAAGCGAGAUCCUACAUGAGGAUCACCCAUGUGCUCGUCUUAUAAGGUACUGUGACGAAAGUCACGGUACC [Eli 91 v37] (Eterna round: R97, puzzle: Sensor, turn-off variant 1) |  |  |  | 19.5 nM | 21 nM | 
12 | AGAGUGCUGCGAGGAUAUACAUGAGGAUCACCCAUGUAAAUGUGUGAGGCUUUGCCUCACACAAUGUAGAAGGCGCAGUACUCA [Mat - Exclusion NG 2 - Mod of JL - D2] (Eterna round: R96, puzzle: Exclusion NG 2) |  |  |  | 19 nM | 14.4 nM | 10.7 nM
13 | CCGCAAAUGGAGGAUAUCGUAUCGGAUACGAUACGAGAAGGCUAAACAUGAGGAUCACCCAUGUGUCCUAGCGG [Fiskers Ex 6 - 34] (puzzle: Exclusion 6) |  | 10.9 nM |  |  |  | 
14 | GACUAGGCAGGAUAUACAUGAGGAUCACCCAUGUGUCUGCGUUGGGCACGUGAACACCGUAGAAGGGCCUUGAC [ChP 13.04.2015 #14] (puzzle: Exclusion 3) |  | 14.4 nM |  |  |  | 
15 | GAGUUAACAUGAGGAAUAUACAUGAGGAUCACCCAUGUUAACAAAUUUAUUGCUCGUCUUAUAACAACAAUUAACUC [Alarm 5 - Jieux - Sensor, turn-off variant 1] (Eterna round: R97, puzzle: Sensor, turn-off variant 1) |  |  |  | 105 nM | 111 nM | 
16 | AAAGAAGAGAGAAAACAACACAUGAGGAUCACCCAUGUGAGAAGAUGAGGGUGAUACAGGCUAUAUGCUCGUCUUAU (puzzle: Sensor v3, turn-off variant 1) | 55 nM | 281 nM | 52.4 nM |  |  | 
17 | GGAGGAAGAGAGGAUAUGCGCGCAAGGAGCUUAGCAGAAGGUUCAACAUGAGGAUCACCCAUGUAUGAUCCUCA [AK-MS2ROC-r4-exclusion6-5] (Eterna round: R97, puzzle: Exclusion 6) |  |  |  | 341 nM | 318 nM | 
18 | GCAAUGAGUGUGAGGAUAUGCUGGUCCUUGGAUCAGCAGAAGGCACAUGAGGAUCACCCAUGUGAAAACAUUGC [Mat - Exclusion 4 - JL Mod - D63] (puzzle: Brourd's mod of Exclusion 4) | 147 nM | 17.4 nM | 23.1 nM |  |  | 
19 | CGUACUGAAGUUAGGAUAUUGUCUCGGAUACGAAACAAGAAGGGACAUGAGGAUCACCCAUGUAGACAGUACGA [Malc #30 mod 4] (puzzle: Brourd's mod of Exclusion 4) | 24.7 nM | 27.1 nM | 27.7 nM |  |  | 
20 | UAAACAAGCUAAAGAUCCCACAUGAGGAUCACCCAUGUGCUCGUCUUGUAACGUACUGUGACGAAAGUCACGGUACG [JL TOV1 3.11] (Eterna round: R97, puzzle: Sensor, turn-off variant 1) |  |  |  | 19.1 nM | 22.8 nM | 
21 | GGUUGGCGAGGAUAUACAUGAGGAUCACCCAUGUGAGAGAAAAAAGUGAGAACGAAAAGUAGAAGGCGCUGACG [salish99_ex3_r3_057] (puzzle: Exclusion 3) | 272 nM | 122 nM | 76.9 nM |  |  | 
22 | GCACCGUCAGGAUAUACAUGAGGAUCACCCAUGUGACCACCACUGUUCAUGACGCAUUGUAGAAGGGACGGAAA [Eternabot (L2) Solution 47] (Eterna round: R97, puzzle: Exclusion 3) |  |  |  | 250 nM | 54.7 nM | 
23 | AAUGAUUGACGAGGAUAUUGUGGUGAAACACGACGAGAAGGCGUAUGUCACAUGAGGAUCACCCAUGUGAGCUUUGUGGAUAUA [Ex NG1 #68] (Eterna round: R96, puzzle: Exclusion NG 1) |  |  |  | 34.7 nM | 34.1 nM | 24.1 nM
24 | UGAUCAGACCGAGGAUAUACAUGUAGGACGCACGUGAGUGCGUCCAGUACAUGAGGAUCACCCAUGUAGAAGGCGGUCUGAUCU [JL ENG2 1.95] (Eterna round: R96, puzzle: Exclusion NG 2) |  |  |  | 309 nM | 76.1 nM | 78.2 nM
25 | UUUCAUCAUGUAGGAUAUGCGUGGCGAAGCUAUGCAGAAGGACAUGAGGAUCACCCAUGUUCUUGCGUCUGCGUACAGAUGCAA [JL ENG1 1.34] (Eterna round: R96, puzzle: Exclusion NG 1) |  |  |  | 266 nM | 43 nM | 35.5 nM
26 | GAACUGAGGCAAAGCUUUAGUCGUACAUGAGGAUCACCCAUGUAGGAUAUGGUAGGCUUUGCUUACCAGAAGGACAGAGUGAUC [Mat - Exclusion NG 3 - Mod of JL - D59] (Eterna round: R96, puzzle: Exclusion NG 3) |  |  |  |  |  | 76.3 nM
27 | CGGUGCUCGUGGAAACAUGAGGAUCACCCAUGUAGAGUUAGCGAGGAUAUCGGUAACACACAUCACGAGAAGGCGCGAACCUGU [Ex NG3 #6] (Eterna round: R96, puzzle: Exclusion NG 3) |  |  |  | 31.7 nM | 20.8 nM | 12.1 nM
28 | AAGAAACAUGAGGAUCACCCAUGUGAGGAUAUGACGAAGAAAAGAAAAGAAAGAAGAUUCAGAAGGCACAAAGG [salish99-ex1_r3_061] (puzzle: Exclusion 1) | 90.1 nM | 42.9 nM | 56.4 nM |  |  | 
29 | GCAAGCUUUAUCACUAUGAACAUGAGGAUCACCCAUGUAUAAGGUAUUACUUUUGGGCUCUUUAGUGCUCGUCUUAU [JR_STOV1_Sub033] (Eterna round: R97, puzzle: Sensor, turn-off variant 1) |  |  |  | 26.2 nM | 26.7 nM | 
30 | ACAUUGUAUGUGAGGAUAUCGAUGGGAUGGGUUGUCGAGAAGGCACAUGAGGAUCACCCAUGUAAGGGACAGCA [JR_BMEx4_Sub029] (Eterna round: R97, puzzle: Brourd's mod of Exclusion 4) |  |  |  | 295 nM | 83.1 nM | 
